Assay results reported in the RNAGym collection of RNA variant scans (doi:10.1093/molbev/msab373).

B1: Azoarcus group I ribozyme (parent)
chain: GUGCCUUGCGCCGGGAAACCACGCAAGGGAUGGUGUCAAAUUCGGCGAAACCUAAGCGCCCGCCCGGGCGUAUGGCAACGCCGAGCCAAGCUUCGGCGCCUGCGCCGAUGAAGGUGUAGAGACUAGACGGCACCCACCUAAGGCAAACGCUAUGGUGAAGGCAUAGUCCAGGGAGUGGCGAAAGUCACACAAACCGG

Variants of: B1
Experiment: reverse-splicing fitness (ratio to wild type); higher = more active; in vitro selection; Mg2+ level not given
Summary of the method: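 An in vitro group I ribozyme library with randomized positions was T7-transcribed and gel-purified. In triplicate, 10 pmol RNA in EPPS pH 7.5 was reacted with 50 pmoles of a 30-nt RNA substrate for 1 h at 37 °C across several added MgCl2 levels (1–48 mM), then stopped with EDTA. Products were reverse transcribed from a substrate-complementary primer, PCR-amplified and sequenced (HiSeq 4000). Fitness is a variant's read proportion after selection over that before, normalised to wild type.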

Variant | reverse-splicing fitness
GUGCCUUGCGCCGGGAAACCACGCAAGGGAUGGUGUCAAAUUCGGCGAAACCUAAGCGCCCGCCCGGGCGUAUGGCAACGCAGAGCCAAGCUUCGGCGCCUGCGCCGAUGGAGGUGUAGGGACUAGACGGCACCCACCUAAGGCGAACGAUAUGGUGAAGGCAUAGUCCAGGGAGUGGCGAAAGUCACACAAACCGG [C82A A111G A120G A145G C150A] | 0.00972
GUGCCUUGCGCCGGGAAACCACGCAAGGGAUGGUGUCAAAUUCGGCGAAACCUAAGCGCCCGCCCGGGCGUAUGGCAACGCAGAGCCAAGCUUCGGCGCCUGCGCCGAUGGAGGUGUAGGGACUAGACGGCACCCACCUAAGGCCAACGCUAUGGUGAAGGCAUAGUCUAGGGAGUGGCGAAAGUCACACAAACCGG [C82A A111G A120G A145C C169U] | 0.0103
GUGCCUUGCGCCGGGAAACCACGCAAGGGAUGGUGUCAAAUUCGGCGAAACCUAAGCGCCCGCCCGGGCGUAUGGCAACGCAGAGCCAAGCUUCGGCGCCUGCGCCGAUGGAGGUGUAGGGACUAGACGGCACCCACCUAAGGCCAACGCUAUGGUGAAGGCAUAGUCGAGGGAGUGGCGAAAGUCACACAAACCGG [C82A A111G A120G A145C C169G] | 0.0122
GUGCCUUGCGCCGGGAAACCACGCAAGGGAUGGUGUCAAAUUCGGCGAAACCUAAGCGCCCGCCCGGGCGUAUGGCAACGCAGAGCCAAGCUUCGGCGCCUGCGCCGAUGGAGGUGUAGGGACUAGACGGCACCCACCUAAGGCCAACGCUAUGGUGAAGGCAUAGUCGAGGGAGAGGCGAAAGUCACACAAACCGG [C82A A111G A120G A145C C169G U176A] | 0.0248
GUGCCUUGCGCCGGGAAACCACGCAAGGGAUGGUGUCAAAUUCGGCGAAACCUAAGCGCCCGCCCGGGCGUAUGGCAACGCAGAGCCAAGCUUCGGCGCCUGCGCCGAUGGAGGUGUAGGGACUAGACGGCACCCACCUAAGGCCAACGCUAUGGUGAAGGCAUAGUCGAGGGAGCGGCGAAAGUCACACAAACCGG [C82A A111G A120G A145C C169G U176C] | 0.0178
GUGCCUUGCGCCGGGAAACCACGCAAGGGAUGGUGUCAAAUUCGGCGAAACCUAAGCGCCCGCCCGGGCGUAUGGCAACGCAGAGCCAAGCUUCGGCGCCUGCGCCGAUGGAGGUGUAGGGACUAGACGGCACCCACCUAAGGCCAACGCUAUGGUGAAGGCAUAGUCGAGGGAGGGGCGAAAGUCACACAAACCGG [C82A A111G A120G A145C C169G U176G] | 0.0046
GUGCCUUGCGCCGGGAAACCACGCAAGGGAUGGUGUCAAAUUCGGCGAAACCUAAGCGCCCGCCCGGGCGUAUGGCAACGCAGAGCCAAGCUUCGGCGCCUGCGCCGAUGGAGGUGUAGGGACUAGACGGCACCCACCUAAGGCCAACGCUAUGGUGAAGGCAUAGUCUAGGGAGCGGCGAAAGUCACACAAACCGG [C82A A111G A120G A145C C169U U176C] | 0.0129
GUGCCUUGCGCCGGGAAACCACGCAAGGGAUGGUGUCAAAUUCGGCGAAACCUAAGCGCCCGCCCGGGCGUAUGGCAACGCAGAGCCAAGCUUCGGCGCCUGCGCCGAUGGAGGUGUAGGGACUAGACGGCACCCACCUAAGGCCAACGCUAUGGUGAAGGCAUAGUCUAGGGAGAGGCGAAAGUCACACAAACCGG [C82A A111G A120G A145C C169U U176A] | 0.0193
GUGCCUUGCGCCGGGAAACCACGCAAGGGAUGGUGUCAAAUUCGGCGAAACCUAAGCGCCCGCCCGGGCGUAUGGCAACGCAGAGCCAAGCUUCGGCGCCUGCGCCGAUGGAGGUGUAGGGACUAGACGGCACCCACCUAAGGCCAACGCUAUGGUGAAGGCAUAGUCUAGGGAGGGGCGAAAGUCACACAAACCGG [C82A A111G A120G A145C C169U U176G] | 0.00388
GUGCCUUGCGCCGGGAAACCACGCAAGGGAUGGUGUCAAAUUCGGCGAAACCUAAGCGCCCGCCCGGGCGUAUGGCAACGCAGAGCCAAGCUUCGGCGCCUGCGCCGAUGGAGGUGUAGGGACUAGACGGCACCCACCUAAGGCCAACGCUAUGGUGAAGGCAUAGUCCAGGGAGAGGCGAAAGUCACACAAACCGG [C82A A111G A120G A145C U176A] | 0.0113
GUGCCUUGCGCCGGGAAACCACGCAAGGGAUGGUGUCAAAUUCGGCGAAACCUAAGCGCCCGCCCGGGCGUAUGGCAACGCAGAGCCAAGCUUCGGCGCCUGCGCCGAUGGAGGUGUAGGGACUAGACGGCACCCACCUAAGGCCAACGCUAUGGUGAAGGCAUAGUCCAGGGAGCGGCGAAAGUCACACAAACCGG [C82A A111G A120G A145C U176C] | 0.0105
GUGCCUUGCGCCGGGAAACCACGCAAGGGAUGGUGUCAAAUUCGGCGAAACCUAAGCGCCCGCCCGGGCGUAUGGCAACGCAGAGCCAAGCUUCGGCGCCUGCGCCGAUGGAGGUGUAGGGACUAGACGGCACCCACCUAAGGCCAACGCUAUGGUGAAGGCAUAGUCCAGGGAGGGGCGAAAGUCACACAAACCGG [C82A A111G A120G A145C U176G] | 0.00516
GUGCCUUGCGCCGGGAAACCACGCAAGGGAUGGUGUCAAAUUCGGCGAAACCUAAGCGCCCGCCCGGGCGUAUGGCAACGCAGAGCCAAGCUUCGGCGCCUGCGCCGAUGGAGGUGUAGGGACUAGACGGCACCCACCUAAGGCGAACGCUAUGGUGAAGGCAUAGUCCAGGGAGUGGCGAAAGUCACACAAACCGG [C82A A111G A120G A145G] | 0.0165
GUGCCUUGCGCCGGGAAACCACGCAAGGGAUGGUGUCAAAUUCGGCGAAACCUAAGCGCCCGCCCGGGCGUAUGGCAACGCAGAGCCAAGCUUCGGCGCCUGCGCCGAUGGAGGUGUAGGGACUAGACGGCACCCACCUAAGGCGAACGAUAUGGUGAAGGCAUAGUCAAGGGAGAGGCGAAAGUCACACAAACCGG [C82A A111G A120G A145G C150A C169A U176A] | 0.0205
GUGCCUUGCGCCGGGAAACCACGCAAGGGAUGGUGUCAAAUUCGGCGAAACCUAAGCGCCCGCCCGGGCGUAUGGCAACGCAGAGCCAAGCUUCGGCGCCUGCGCCGAUGGAGGUGUAGGGACUAGACGGCACCCACCUAAGGCGAACGAUAUGGUGAAGGCAUAGUCAAGGGAGUGGCGAAAGUCACACAAACCGG [C82A A111G A120G A145G C150A C169A] | 0.0103
